Common to all, as to test: ELISA, IL-17A coated on plate, relative binding (Table 6a)
Experiment [1] deals with Cynomolgous IL-17A (cynomolgous).
Experiment [2] has as its target T1, Human IL-17A (human) (UniProt Q16552).
T1 sequence: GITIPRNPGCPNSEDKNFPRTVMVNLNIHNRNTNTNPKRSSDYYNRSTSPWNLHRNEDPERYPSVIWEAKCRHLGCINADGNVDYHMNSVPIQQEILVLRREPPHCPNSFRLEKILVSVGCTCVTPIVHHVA

Experiment [3] addresses T1, Human IL-17A (human). The source holds these as a separate data set.

Relative binding to cynomolgous IL-17A in % and Relative binding to human IL-17A in % data for 2 molecules are collected here from WO2014161570A1.

Where two headings read alike, the source gives them in different places.

eBio64CAP17 (antibody): in experiment [1], the Relative binding to cynomolgous IL-17A in % came to 124%. This molecule gave a Relative binding to human IL-17A in % in the experiment with Human IL-17A (human) [2] of 122%.

B1: <IL17> 9C6-2B6 (mouse clone) (antibody, V domains shown)
VH: QVQLKESGPGLVAPSQSLSITCTVSGFSLDSYGVHWVRQPPGKGLEWLVVIWSDGTTTYNSALKSRLSITKDNSKSQVFLKMNSLQTDDTAIYYCARDTHYRLYYYAMDYWGQGTSVTVSS
VL: DVVMTQTPLSLPVSLGDQASISCRSSQSLVHSNGDTYFHWYLQKPGQSPKLLIYKVSNRFSGVPDRFSGSGSGTDFTLKINRVEAEDLGVYFCSQTTHAPFTFGSGTKLEIK
B1 yielded a Relative binding to human IL-17A in % in the experiment with Human IL-17A (human) [3] of 127%.
